Reference: the supplement of paper PMC10567573

B1: FBXO39 (parent)
chain: RVFKARIYTNRYETNEEDKTLQEI
B2: VDR (parent)
chain: VTLELSQLSMLPHLADLVSYSIQK

Variants of: B1
Experiment: protein stability index of a GFP-peptide fusion (GPS, HEK-293T) (PSI 1-6); higher = more stable
Conditions: c terminus: a fixed tail appended
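Also: lentivirally expressed fusions sorted by FACS into six bins by GFP to DsRed ratio, PSI derived from sequencing read proportions per bin multiplied by bin number.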

Protein stability index of substitutions, site by site:
I7: C 2.74, F 2.67, D 4.26, E 3.24, A 3.14, H 2.54, G 3.64
V2: Q 3.37, F 3.18, G 3.69, N 4.09, S 4.22, D 4.76, K 3.36, T 2.89, L 3.19, M 3.98, H 3.85, W 2.45, R 4.24, E 4.36, P 4.56, I 2.51, C 2.87
F3: A 4.19, N 4.76, T 4.88, G 4.12, Q 4.59, W 2.65, R 4.71, S 4.54, M 4.41, Y 2.59, C 2.82, H 4.63, I 4.61, V 4.15, D 5.46, L 3.05, K 4.32, P 4.55, E 5.23
R6: Q 3.71, M 1.99, V 2.21, A 3.66, N 3.72, F 1.41, I 1.9, W 1.92, Y 2.62, D 4.04, C 2.77, S 3.37, K 3.01, T 3.79, E 4.25, P 4.08, H 2.83, G 3.7
A5: N 3.95, P 3.05, H 3.04, D 4.39, F 1.63, S 2.71, T 2.1, W 2.34, V 1.67, K 2.69, R 3.49, Q 2.7, Y 2.19, G 3.1, L 3.33, C 3.51, E 4.48, I 2.2, M 3.02
R1: A 2.84, I 3.15, L 2.74, Q 3.74, V 1.66, S 2.72, F 1.66, W 2.08, M 3.34, K 2.6, P 4.26, C 1.7, G 3.42, Y 2.14, H 3.35, T 2.72, D 3.95
K4: N 3.6, E 3.81, D 4.08, S 3.6, G 3.59, H 3.52, R 3.12, P 4.27, L 1.99, Y 2.11, Q 4.48, C 2.83, M 2.65, I 1.88, V 2.16, T 4.72, A 2.55, F 2.03

Variants of: B2
Experiment: as above
Conditions: c terminus: a fixed tail appended

Protein stability index, by site and new letter:
K24: L 1.86, H 5.43, S 2.66, D 3.06, G 2.79, T 3.5, A 2.14, Y 3.25, E 3.5, R 3.01, Q 3.06, I 4.63, V 5.45, M 3.28, C 2.39, W 3.71, N 3.71, P 2.95
A15: S 2.73, N 2.99, T 2.83, I 3.26, F 2.81, R 2.64, E 1.85, G 2.59, Q 2.83, Y 4.33, L 3.63, K 2.64, P 2.1, W 2.67, D 3.12, H 4.28, M 2.78, V 3.02
L14: N 1.61, H 2.6, Q 2.22, T 2.12, K 2.31, E 2.88, G 1.71, M 3.71, Y 3.47, S 1.66, P 1.85, R 1.86, I 3.33, W 2.95, C 2.09, F 2.69, D 2.49, A 2.18, V 3.03
Q23: S 2.05, G 2.84, F 4.15, C 2.33, L 3.08, K 3.23, V 2.59, N 2.07, I 2.56, P 1.68, T 2.74, H 5.2, W 1.56, E 3.09, Y 1.97
S21: I 1.89, W 3.16, R 2.13, Y 2.45, E 2.84, V 3.87, H 2.5, Q 1.43, K 2.89, F 3.64, D 3.11, P 1.05, N 3.47, M 1.43, G 2.48
Y20: R 3.61, G 2.73, M 2.91, P 2.3, S 2.92, E 2.97, D 1.35, K 2.33, H 3.24, A 1.94, T 2.31, L 3.69, W 2.91, I 3.08, Q 3.29, N 1.81, F 2.41, C 2.66
D16: N 3.07, L 3.77, F 3.5, A 3.1, P 3.09, M 3.71, Y 2.31, S 2.82, T 2.91, R 3.75, Q 3.98, G 1.67, V 3.99, C 3.86, H 3, E 4.21, K 4.49, W 2.26
P12: Y 3.69, L 3.04, N 2.22, R 3.79, V 2.61, S 2.38, T 3.29, Q 3.63, W 4.36, M 2.51
V18: Q 2.76, W 3.29, F 3.13, S 2.94, M 2.99, L 3.33, D 2.24, I 2.79, K 2.69, R 2.57, T 1.49, P 1.88, Y 3.48, G 1.78, N 1.8, E 1.73, H 2.04, A 3.69, C 4.49
L17: R 1.62, Q 2.42, M 2.75, K 1.68, S 1.6, P 2.77, E 1.87, G 1.33, D 1.7, H 1.98, V 1.66, T 2.47, A 2.04, C 3.09, N 1.77, W 3.14
S19: I 2.76, A 2.23, C 2.33, E 2.05, G 4.13, M 3.08, H 2.79, D 2.27, R 3.25, Y 2.42, W 3.07, K 1.68, T 3.23, P 2.63, F 3.49, N 3.84, L 4.2, V 4.3
H13: G 2.52, Q 1.8, M 4.11, N 2.13, S 2.57, V 1.98, F 2.48, D 2.87, K 2.92, R 2.16, I 3.46, P 2.69, A 2.64, Y 2.58, T 2.23, W 1.99, E 3.51
I22: D 2.23, W 1.98, V 4.61, E 1.92, R 2.12, T 1.87, Q 2.74, G 2.47, M 3.49, H 2.34, F 2.12, C 4.35, S 1.79, P 1.55, Y 3.63, N 2.32, A 1.56, K 1.72
